Experimental data as given in patent US20260055398A1, “IMPROVED POLYMER DEGRADING ENZYMES” (CAMBRIDGE ENTERPRISE LIMITED, priority 2022, published 2026).

Columns and labels:
[1] = Light scattering of microdroplets with enzyme and PET nanoparticles; type: biochemical; settings: 600 nM enzyme co-encapsulated with PET nanoparticles, versus buffer control
Description: (A) As described in FIG. 1, for the screening of metagenomic libraries for esterase activity isolated environmental DNA (eDNA) was cloned into plasmids. After the transformation of bacterial cells, single ones were co-encapsulated in microdroplets with lysis agent and the fluorescein dihexanoate substrate. After an off-chip incubation, the droplets were reinjected into the FADS sorting device and positive hits selected. After DNA recovery the re-screening and sequencing lead to a novel esterase showing promiscuous activity on PET. This enzyme was used to generate a sequence network together with known PETases. CI5En2 was identified in of the clusters as a novel PET hydrolase. This enzyme was subjected to a directed evolution campaign. Single bacterial cells were encapsulated in microdroplets together with lysis agent and PET nanoparticles serving as the substrate of the assay. Droplets were incubated in droplet chambers and reinjected into the sorting module. The SADS module relies on fiber optics integrated into a chip at a 90° angle. Schematic picture showing the main principle of the assay. […] The dielectrophoretic sorting of “positive” droplets is triggered when the measured value is within a user-defined threshold. (C) Histogram of the detected light scattering for co-encapsulated CI5En2 (600 nM) or a buffer control and PET nanoparticles. […]

[2] = Enzymatic degradation of PET (nanoparticles, film), HPLC of released TPA and MHET; type: biochemical
Description: (A) Sequence network of currently known PETases and a novel esterase metagenomic-derived, RR11O2. […] Grey nodes represent sequences extracted from MGnify and NCBI. Red node represents RR11O2, blue nodes represent known PETases, green and orange nodes represent reported cutinases and esterases showing PET activity, respectively, and light blue nodes represent described polyester degrading enzymes in the literature. To putatively characterise sequence clusters, the identification of PETases, cutinases, esterases and RR11O2 in the network helped to define the potential clusters. The cluster of RR11O2, CI5En2 and PETase are written in grey. (B) PET hydrolases catalyze the depolymerization of poly(ethylene terephthalate) (PET) to bis(2-hydroxyethyl) terephthalate (BHET), mono(2-hydroxyethyl)-terephthalic (MHET) or terephthalic acid (TPA) and ethylene glycol (EG). During characterizations via high-performance liquid chromatography (HPLC) MHET and TPA have been identified as main products. […] Absorbance at 250 nm was monitored.
(A) Enrichment of variants with higher activity compared to wildtype after sorting the ep-PCR library of CI5En2. […] Amount of the released monomers TPA and MHET was determined via HPLC and corresponding standard curves for TPA and MHET. […]
HPLC analysis of the products released after one week incubation at 30° C. using 6 μM pExp-bla-CI5En2-WT. Absorbance at 250 nm was monitored which detects released TPA and MHET.
To detect the release of TPA, MHET and BHET in the presence of various enzymes, aliquots were taken from reaction mixtures, turnover was stopped by addition of an equal volume of methanol containing 0.5% formic acid, centrifuged (16,100×g, 15 min) and analysed by HPLC (1260 Infinity II, Agilent; Nucleodur C18 analytical EC standard column (5 μm, 4×125 mm, Macherey-Nagel, Germany). As the mobile phase mixtures of buffer A (0.1% formic acid in distilled water) and buffer C (distilled water), as well as buffer D (acetonitrile) were used at a flow rate of 1 mL/min. Buffer A was kept at 20% for the whole run. […]

B1: CI5En2: novel PET hydrolase identified from a sequence network cluster; amino acid SEQ ID NO. 2 (protein)
chain: MADYAKGPAPTVALLTAPAGPYQTATYKIAAADAKAFNYGGATVHYPVAKAPGETFGVVVMVPGFLAFQAVYDWLVSRVASHGFVVVNMDTVGRGDYPDERAEQAAGALRHVVSLAQAGTAPYAPVADTSRRAVMGNSMGGGASLSAAVVDPTLKAVVALQPWHTTKSFTGVASPTLVVACEKDSIAPNKSHSDVFYNSLSAALPRAEIEMRGAGHLCATFLATAAQKTTMAKSSVAWLKRFLDNDMRYDAMVKGGIDQGEFSRFVV
modifications: C15EN2
With B1 the “detected light scattering signal of droplets” value [1] was “decreases over time”, the “activity against PET nanoparticles with different crystallinity” value ([2]; amorphous and crystalline PET NPs) was “showed activity” and the “PET degrading activity compared with IsPETase and LCC” value ([2]; at 30° C.) was “activity comparable to IsPETase and higher than LCC”.
